# Laboratory results reported in the supplement of paper PMC9112550, “Optimization of the antimicrobial peptide Bac7 by deep mutational scanning” (BMC Biology, 2022).
# Tested on: Escherichia coli TOP10
# Test: shrunken log2 fold change of peptide-encoding DNA abundance (4.5 h post-induction vs induction); higher = less antimicrobial activity (less host growth inhibition)
# Settings: time post-induction: 4.5 h; library: site-saturation at positions 5, 18, 19, 20
# 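Also: peptides expressed intracellularly from a pBAD plasmid library in pooled LB shake-flask culture, induced with 0.3% L-arabinose, DNA abundance read by NGS, three biological replicates, DESeq2 with apeglm shrinkage.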
row,Sequence,shrunken log2 fold change
1,RRIRWRPPRLPRPRPRPDCPPRP,0.0548
2,RRIRRRPPRLPRPRPRPYHIPRP,-0.365
3,RRIRGRPPRLPRPRPRPKRFPRP,-0.0242
4,RRIRDRPPRLPRPRPRPPHCPRP,0.0674
5,RRIRFRPPRLPRPRPRPQTPPRP,0.626
6,RRIRFRPPRLPRPRPRPQEIPRP,-0.0426
7,RRIRRRPPRLPRPRPRPDHWPRP,-0.136
8,RRIRNRPPRLPRPRPRPYQFPRP,-0.225
9,RRIRCRPPRLPRPRPRPRCKPRP,-0.206
10,RRIRYRPPRLPRPRPRPTHQPRP,-0.161
11,RRIRIRPPRLPRPRPRPIFPPRP,-0.104
12,RRIRFRPPRLPRPRPRPALLPRP,-0.00442
13,RRIRGRPPRLPRPRPRPEQMPRP,0.152
14,RRIRNRPPRLPRPRPRPQGMPRP,-0.0261
15,RRIRSRPPRLPRPRPRPQMEPRP,0.0832
16,RRIRHRPPRLPRPRPRPCSFPRP,-0.309
17,RRIRIRPPRLPRPRPRPHLKPRP,-0.358
18,RRIRRRPPRLPRPRPRPNVLPRP,-0.185
19,RRIRSRPPRLPRPRPRPVAAPRP,0.432
20,RRIRKRPPRLPRPRPRPTGFPRP,0.0653
21,RRIRIRPPRLPRPRPRPNHPPRP,-0.469
22,RRIRGRPPRLPRPRPRPQYLPRP,0.0284

row,Sequence,shrunken log2 fold change
1,RRIRKRPPRLPRPRPRPGTCPRP,0.258
2,RRIRCRPPRLPRPRPRPNMSPRP,-0.204
3,RRIRQRPPRLPRPRPRPHAMPRP,-0.0121
4,RRIRDRPPRLPRPRPRPYHWPRP,0.0299
5,RRIRCRPPRLPRPRPRPHYLPRP,-0.574
6,RRIRPRPPRLPRPRPRPRKLPRP,0.342
7,RRIRHRPPRLPRPRPRPFESPRP,-0.00822
8,RRIRQRPPRLPRPRPRPMSCPRP,0.029
9,RRIRNRPPRLPRPRPRPEFSPRP,0.0268
10,RRIRFRPPRLPRPRPRPHDDPRP,-0.531
11,RRIRWRPPRLPRPRPRPCNKPRP,-0.738
12,RRIRDRPPRLPRPRPRPWPYPRP,-0.0943
13,RRIRVRPPRLPRPRPRPHMHPRP,-0.517
14,RRIRDRPPRLPRPRPRPQGCPRP,0.0122
15,RRIRRRPPRLPRPRPRPPSYPRP,0.26
16,RRIRQRPPRLPRPRPRPCWLPRP,0.0947
17,RRIRERPPRLPRPRPRPVQDPRP,-0.0228
18,RRIRKRPPRLPRPRPRPAKIPRP,-0.266
19,RRIRARPPRLPRPRPRPAYNPRP,0.0748
20,RRIRARPPRLPRPRPRPSMVPRP,-0.263
21,RRIRHRPPRLPRPRPRPPANPRP,0.478
22,RRIRARPPRLPRPRPRPHHTPRP,-0.364

row,Sequence,shrunken log2 fold change
1,RRIRNRPPRLPRPRPRPYAAPRP,-0.4
2,RRIRFRPPRLPRPRPRPPCDPRP,0.0212
3,RRIRSRPPRLPRPRPRPSGWPRP,0.434
4,RRIRTRPPRLPRPRPRPIDSPRP,-0.162
5,RRIRWRPPRLPRPRPRPTCWPRP,0.183
6,RRIRDRPPRLPRPRPRPGGGPRP,1.08
7,RRIRCRPPRLPRPRPRPQDGPRP,0.143
8,RRIRIRPPRLPRPRPRPDNMPRP,-0.25
9,RRIRHRPPRLPRPRPRPEQHPRP,1.73
10,RRIRCRPPRLPRPRPRPGTDPRP,-0.00121
11,RRIRFRPPRLPRPRPRPWDNPRP,-0.298
12,RRIRWRPPRLPRPRPRPYSWPRP,-0.128
13,RRIRCRPPRLPRPRPRPCYWPRP,-0.595
14,RRIRRRPPRLPRPRPRPFCQPRP,-0.252
15,RRIRKRPPRLPRPRPRPEFQPRP,0.0241
16,RRIRMRPPRLPRPRPRPESNPRP,0.102
17,RRIRMRPPRLPRPRPRPNPNPRP,0.394
18,RRIRRRPPRLPRPRPRPRDKPRP,0.126
19,RRIRMRPPRLPRPRPRPWPRPRP,1.25
20,RRIRPRPPRLPRPRPRPDAEPRP,0.496
21,RRIRKRPPRLPRPRPRPGAHPRP,0.663
22,RRIRQRPPRLPRPRPRPQFNPRP,-0.6

row,Sequence,shrunken log2 fold change
1,RRIRVRPPRLPRPRPRPHASPRP,-0.15
2,RRIRARPPRLPRPRPRPRQQPRP,0.277
3,RRIRTRPPRLPRPRPRPTWPPRP,0.439
4,RRIRCRPPRLPRPRPRPFLWPRP,-0.119
5,RRIRPRPPRLPRPRPRPWPVPRP,0.317
6,RRIRDRPPRLPRPRPRPIPRPRP,-0.187
7,RRIRNRPPRLPRPRPRPLAHPRP,0.212
8,RRIRDRPPRLPRPRPRPNQFPRP,-0.416
9,RRIRERPPRLPRPRPRPYYLPRP,-0.827
10,RRIRERPPRLPRPRPRPNSQPRP,-0.389
11,RRIRRRPPRLPRPRPRPDFLPRP,1.31
12,RRIRLRPPRLPRPRPRPQSQPRP,-0.179
13,RRIRARPPRLPRPRPRPLRVPRP,3.15
14,RRIRHRPPRLPRPRPRPSGFPRP,0.112
15,RRIRCRPPRLPRPRPRPPDPPRP,0.459
16,RRIRERPPRLPRPRPRPTCSPRP,-0.397
17,RRIRCRPPRLPRPRPRPDVIPRP,-0.405
18,RRIRIRPPRLPRPRPRPHPVPRP,0.0514
19,RRIRSRPPRLPRPRPRPRSKPRP,0.0951
20,RRIRGRPPRLPRPRPRPCIEPRP,0.0449
21,RRIRVRPPRLPRPRPRPIRIPRP,-0.0273
22,RRIRWRPPRLPRPRPRPYQPPRP,-0.0963

row,Sequence,shrunken log2 fold change
1,RRIRGRPPRLPRPRPRPAHCPRP,1.06
2,RRIRARPPRLPRPRPRPHMCPRP,-0.174
3,RRIRARPPRLPRPRPRPHGAPRP,0.52
4,RRIRKRPPRLPRPRPRPNVFPRP,0.154
5,RRIRSRPPRLPRPRPRPRWIPRP,0.00261
6,RRIRARPPRLPRPRPRPFSCPRP,-0.122
7,RRIRRRPPRLPRPRPRPLVSPRP,0.153
8,RRIRQRPPRLPRPRPRPVYPPRP,-0.0407
9,RRIRYRPPRLPRPRPRPVKSPRP,-0.84
10,RRIRSRPPRLPRPRPRPRMKPRP,-0.0423
11,RRIRKRPPRLPRPRPRPDKDPRP,-0.0555
12,RRIRYRPPRLPRPRPRPVHIPRP,-0.526
13,RRIRWRPPRLPRPRPRPYMNPRP,-1.44
14,RRIRLRPPRLPRPRPRPVTPPRP,-0.0834
15,RRIRDRPPRLPRPRPRPEDEPRP,1.76
16,RRIRVRPPRLPRPRPRPEIGPRP,0.0353
17,RRIRGRPPRLPRPRPRPDLVPRP,0.529
18,RRIRKRPPRLPRPRPRPVKGPRP,0.322
19,RRIRERPPRLPRPRPRPIYCPRP,-0.143
20,RRIRVRPPRLPRPRPRPRYVPRP,-0.218
21,RRIRGRPPRLPRPRPRPLAGPRP,0.887
